Here are results for 1 molecule from publication PMC5701637, “Identification and Analysis of Novel Inhibitors against NS3 Helicase and NS5B RNA-Dependent RNA Polymerase from Hepatitis C Virus 1b (Con1)”.

The series concerns the target NS3 helicase (NS3h) (Hepatitis C virus genotype 1b (Con1), UniProt Q9WMX2 1193-1660). Description: fluorescence polarization; 5 nM DNA, 15 nM NS3h, 1.25 mM MgCl2; FP: 25 mM MOPS pH 7.5, 1.25 mM MgCl2, 0.0025 mg/mL BSA, 0.005% Tween 20, 0.025 mM DTT, 1% DMSO, temperature not stated; EMSA: 50 mM Tris-Cl pH 7.4, 10% glycerol, 0 C, 20 min. The conditions noted are these: protein: recombinant; tags: His tag (pET21b(+), HisTrap purified); single strand.

Sequence of NS3 helicase (NS3h) (Q9WMX2 1193-1660): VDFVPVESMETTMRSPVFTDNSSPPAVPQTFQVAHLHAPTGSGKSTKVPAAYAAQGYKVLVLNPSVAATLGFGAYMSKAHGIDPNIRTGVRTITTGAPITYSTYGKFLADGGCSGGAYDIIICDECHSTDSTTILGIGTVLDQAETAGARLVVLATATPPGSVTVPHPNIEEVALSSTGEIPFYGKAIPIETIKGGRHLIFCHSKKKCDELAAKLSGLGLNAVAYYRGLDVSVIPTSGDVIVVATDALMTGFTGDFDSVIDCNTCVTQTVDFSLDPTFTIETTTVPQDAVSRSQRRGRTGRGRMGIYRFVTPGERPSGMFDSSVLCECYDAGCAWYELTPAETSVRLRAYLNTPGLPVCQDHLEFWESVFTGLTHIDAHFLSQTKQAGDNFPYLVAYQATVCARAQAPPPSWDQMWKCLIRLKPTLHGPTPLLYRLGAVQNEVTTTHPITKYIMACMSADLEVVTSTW

Turning to TTTTTTTTTTTTTTT (ssDNA) [Cy5-dT15], the binding result is “binds”.
